Experimental data reported in patent US20250099540A1 (INSERM INSTITUT NATIONAL DE LA SANT ET DE LA RECHERCHE M …, published 2025).

Target: T1, purified integrin αIIbβ3 (R&D Systems #7148-A2-025) (UniProt P08514 32-993; P05106 27-718)
T1 construct: One protein preparation was tested in two states; also called GPIIb-IIIa; CD41/CD61
Assay: SPR single-cycle kinetics, sEng-Strep on SA chip, activated Ca2+/Mn2+-loaded integrin as analyte, 25° C.; apparent value; activated Ca2+/Mn2+-loaded integrin αIIbβ3 as analyte
Experimental: The association between sEng-Strep-tag® II and integrin αIIbβ3 was analyzed by surface plasmon resonance (SPR) on a streptavidin (SA) biosensor (Cytiva) at 25° C. First, we immobilized resonance units (RU) of sEng-Strep-tag® II onto the test flow cell of a SA chip through the C-terminal StrepII-tag to provide a sEng concentration on the surface of ˜10 μM. The reference flow cell was not modified. […] Polysorbate 20 (PS20), either supplemented with 1 mM MnCl2 and 1 mM CaCl2 or after extensive dialysis against EDTA to remove residual divalent cations in the protein preparation. Integrin αIIbβ3 (25 μg per experiment) was resuspended to 0.2 mg/ml (˜1 μM) in the appropriate running buffer before use. Analysis was performed with the BiaEvaluation version 3.0.2 software (Cytiva) and the Anabel webserver.
To investigate this interaction, we analyzed the association between sEng-Strep-tag® II (sEng-Strep) and integrin αIIbβ3 by surface plasmon resonance (SPR) on a streptavidin (SA) biosensor (Cytiva) at 25° C. using single-cycle kinetics. When non-activated integrin αIIbβ3 was flowed over surface-immobilized sEng-Strep, no binding was detected (FIG. 5).

Kd: < 9 nM | koff: < 0.008 s⁻¹
B1: sEng-Strep-tag II (streptavidin-tagged construct of soluble endoglin) (receptor, human, UniProt P17813 26-586, looked up)
chain: ETVHCDLQPVGPERGEVTYTTSQVSKGCVAQAPNAILEVHVLFLEFPTGPSQLELTLQASKQNGTWPREVLLVLSVNSSVFLHLQALGIPLHLAYNSSLVTFQEPPGVNTTELPSFPKTQILEWAAERGPITSAAELNDPQSILLRLGQAQGSLSFCMLEASQDMGRTLEWRPRTPALVRGCHLEGVAGHKEAHILRVLPGHSAGPRTVTVKVELSCAPGDLDAVLILQGPPYVSWLIDANHNMQIWTTGEYSFKIFPEKNIRGFKLPDTPQGLLGEARMLNASIVASFVELPLASIVSLHASSCGGRLQTSPAPIQTTPPKDTCSPELLMSLIQTKCADDAMTLVLKKELVAHLKCTITGLTFWDPSCEAEDRGDKFVLRSAYSSCGMQVSASMISNEAVVNILSSSSPQRKKVHCLNMDSLSFQLGLYLSPHFLQASNTIEPGQQSFVQVRVSPSVSEFLLQLDSCHLDLGPEGGTVELIQGRAAKGNCVSLLSPSPEGDPRFSFLLHFYTVPIPKTGTLSCTVALRPKTGSQDQEVHRTVFMRLNIISPDLSGCTSKG
notes: extracellular domain; Immobilised on a streptavidin (SA) chip through the C-terminal StrepII-tag; not shown: C-terminal Strep-tag II
